Laboratory results as given in PMC6648343, “Remodeling and destabilization of chromosome 1 pericentromeric heterochromatin by SSX proteins” (Nucleic Acids Research, 2019).

Molecular target: the molecule itself
Test: cross-linking; recombinant SSX2 diluted to indicated concentrations in 20 mM PBS (pH 7.4), 50 mM NaCl; 0.1% glutaraldehyde, 2 min at 37°C, quenched with glycine; oligomerization analysed by Western blotting

B1: recombinant SSX2 (natural protein, UniProt Q16385 1-188, looked up)
chain: MNGDDAFARRPTVGAQIPEKIQKAFDDIAKYFSKEEWEKMKASEKIFYVYMKRKYEAMTKLGFKATLPPFMCNKRAEDFQGNDLDNDPNRGNQVERPQMTFGRLQGISPKIMPKKPAEEGNDSEEVPEASGPQNDGKELCPPGKPTTSEKIHERSGPKRGEHAWTHRLRERKQLVIYEEISDPEEDDE
notes: SSX2; GenBank CAA60111.1 is printed for SSX2 in the structure modelling; also called recombinant, purified SSX2; source: recombinant, purified
- binding result: binds
